Measurements taken from US20180185450A1 (Sanofi, published 2018).
Numbered stars: 1 amine (or outer) side, 2 acyl side, 3 side chain; on linkers, the order of the positions; unused ones are H or OH. Square brackets hold non-standard residues; d marks the D form. Side chains are listed from the residue outwards. Ends that are not written are not given here. γGlu = O=C(O)[C@H](CCC(=O)[*:2])N[*:1]; x53 = not defined here; Aib = CC(C)(N)C(=O)O

Legend:
human glucagon receptor = human glucagon receptor (human, UniProt P47871 26-477); experiment: cell-based or functional assay
human GLP-1 receptor = human GLP-1 receptor (human, UniProt P43220 24-463); experiment: cell-based or functional assay

Sequence of human glucagon receptor (P47871 26-477): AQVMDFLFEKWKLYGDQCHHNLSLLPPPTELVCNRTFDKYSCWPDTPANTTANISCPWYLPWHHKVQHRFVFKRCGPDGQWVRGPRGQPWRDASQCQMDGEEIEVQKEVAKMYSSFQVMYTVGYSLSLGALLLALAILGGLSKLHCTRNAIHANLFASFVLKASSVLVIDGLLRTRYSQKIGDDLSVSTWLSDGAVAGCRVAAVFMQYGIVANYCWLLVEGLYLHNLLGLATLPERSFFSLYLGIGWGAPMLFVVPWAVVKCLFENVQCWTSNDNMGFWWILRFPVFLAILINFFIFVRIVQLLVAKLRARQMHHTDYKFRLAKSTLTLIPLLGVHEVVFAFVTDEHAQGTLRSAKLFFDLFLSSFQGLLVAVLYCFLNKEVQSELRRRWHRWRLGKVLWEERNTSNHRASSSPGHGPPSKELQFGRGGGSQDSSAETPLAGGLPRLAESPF

| Binder | EC50 hGlucagon-R (cAMP) (human glucagon receptor) [pM] | EC50 hGLP-1R (cAMP) (human GLP-1 receptor) [pM] |
| --- | --- | --- |
| HXHGTFTSDLSKQKDSKAAQLFIEWLKAXGPSSGAPPPS (dSer at 2; K(γE-X70) at 14; dAla at 29; C-terminal NH2) [SEQ ID NO: 138] | 9.2 | 5.5 |
| HXQGTFTSDLSKQKESXAAXLFIEWLKAGGPSSGAPPPS (dSer at 2; K(γE-x53) at 14; Aib at 17; Aib at 20; C-terminal NH2) [SEQ ID NO: 12] | 263 | 4.6 |
| HXQGTFTSDLSKQKESXAAQLFIEWLKAGGPSSGAPPPS (dSer at 2; K(GABA-x70) at 14; Aib at 17; C-terminal NH2) [SEQ ID NO: 131] | 24.9 | 9.1 |
| HXQGTFTSDLSKQKESRAAXLFIEWLKNGGPSSGAPPPS (dSer at 2; K(x53) at 14; Aib at 20; C-terminal NH2) [SEQ ID NO: 122] | 156 | 24.9 |
| HXQGTFTSDLSKQKESRAAXLFIEWLKNGGPSSGAPPPS (dSer at 2; K(γE-x53) at 14; Aib at 20; C-terminal NH2) [SEQ ID NO: 121] | 23.7 | 6.1 |
| HXQGTFTSDLSKQKESRRAQDFIEWLKNGGPSSGAPPPSK (dSer at 2; K(γE-x53) at 14; C-terminal NH2) [SEQ ID NO: 111] | 2.5 | 8.1 |
| HXQGTFTSDLSKQKESRRAQDFIEWLKNGGPSSGAPPPSK (dSer at 2; K(x53) at 14; C-terminal NH2) [SEQ ID NO: 112] | 21.1 | 33.6 |
| HXQGTFTSDLSKQKDSQAAQDFIEWLKNTGPSSGAPPPS (dSer at 2; K(γE-x53) at 14; C-terminal NH2) [SEQ ID NO: 86] | 3.5 | 4.9 |
| HXQGTFTSDLSKQKDSRRAQDFIEWLKNGGPSSGAPPPS (dSer at 2; K(γE-x53) at 14; C-terminal N(diethyl)) [SEQ ID NO: 101] | 1.7 | 9.8 |
| HXQGTFTSDLSKQKDSRRAQDFIEWLKNXGPSSGAPPPS (dSer at 2; K(γE-x53) at 14; dAla at 29; C-terminal NH2) [SEQ ID NO: 94] | 2.1 | 5.2 |
| HXQGTFTSDLSKQKESXAAQDFIEWLKAGGPSSGAPPPS (dSer at 2; K(γE-x53) at 14; Aib at 17; C-terminal NH2) [SEQ ID NO: 14] | 94.7 | 4.6 |
| HXQGTFTSDLSKQKDSRRAQDFIEWLKNGGPSSGAPPPS (dSer at 2; K(γE-x53) at 14; C-terminal NH[(CH2)15-CH3]) [SEQ ID NO: 106] | 10.5 | 210 |
| HXQGTFTSDLSKQKDSRRAXDFIEWLKNGGPSSGAPPPS (dSer at 2; K(γE-x53) at 14; Aib at 20; C-terminal NH2) [SEQ ID NO: 118] | 4.3 | 15.3 |
| HXQGTFTSDLSKQKDSRRAQDFIEWLKNGGPSSGAPPPS (dSer at 2; K(γE-x53) at 14; C-terminal NH[(CH2)13-CH3]) [SEQ ID NO: 110] | 7.2 | 213 |
| HXQGTFTSDLSKQKESRRAQDFIEWLKNAGPSSGAPPPS (dSer at 2; K(γE-x53) at 14; C-terminal NH2) [SEQ ID NO: 95] | 9.2 | 20.6 |
| HXQGTFTSDLSKQKDSRRAQDFIEWLKNGGPSSGAPPPS (dSer at 2; K(γE-x53) at 14; C-terminal NH(pyrrolidin)) [SEQ ID NO: 98] | 1.4 | 9.6 |
| HXQGTFTSDLSKQKDSRRAQDFIEWLKNGGPSSGAPPPS (dSer at 2; K(γE-x53) at 14; C-terminal NH(benzyl)) [SEQ ID NO: 99] | 2.6 | 15.9 |
| HXQGTFTSDLSKQKDSRRAQDFIEWLKNGGPSSGAPPPS (dSer at 2; K(γE-x53) at 14; C-terminal NH(CH2-CF3)) [SEQ ID NO: 103] | 1.7 | 10.1 |
| HXQGTFTSDLSKQKDSQAAQDFIEWLKRGGPSSGAPPPS (dSer at 2; K(γE-x53) at 14; C-terminal NH2) [SEQ ID NO: 123] | 9.7 | 2.6 |
| HXQGTFTSDLSKQKESRRAQDFIEWLKNGGPSSGAPPPS (dSer at 2; K(γE-x53) at 14; C-terminal NH2) [SEQ ID NO: 116] | 3.6 | 6 |
| HXQGTFTSDLSKQKDSRRAQDFIEWLKNGGPSSGAPPPS (dSer at 2; K(γE-x53) at 14; C-terminal N(morpholin)) [SEQ ID NO: 102] | 1.1 | 7.2 |
| HXQGTFTSDLSKQKDSRRAQDFIEWLKNGGPSSGAPPPS (dSer at 2; K(γE-x53) at 14; C-terminal NH[(CH2)14-CH3]) [SEQ ID NO: 108] | 9 | 197 |
| HXQGTFTSDLSKQKDSRRAQDFIEWLKNGGPSSGAPPPS (dSer at 2; K(γE-x53) at 14; C-terminal NH(n-Propyl)) [SEQ ID NO: 10] | 1.7 | 9.2 |
| HXQGTFTSDLSKQKDSRRAQDFIEWLKNGGPSSGAPPPS (dSer at 2; K(γE-x60) at 14; C-terminal NH2) [SEQ ID NO: 89] | 13.7 | 35.6 |

| Binder | EC50 hGlucagon-R (cAMP) (human glucagon receptor) [pM] | EC50 hGLP-1R (cAMP) (human GLP-1 receptor) [pM] |
| --- | --- | --- |
| HXQGTFTSDLSKQKDSRRAQDFIEWLKNAGPSSGAPPPS (dSer at 2; K(γE-x53) at 14; C-terminal NH2) [SEQ ID NO: 93] | 2.6 | 10.7 |
| HXQGTFTSDLSKQKDSRRAQDFIEWLKNGGPSSGAPPPS (dSer at 2; K(γE-x53) at 14; C-terminal NH[(CH2-CH2-O)24-CH2-CH2-COOH]) [SEQ ID NO: 105] | 1 | 7.9 |
| HXQGTFTSDLSKQKDSQAAQDFIEWLKRAGPSSGAPPPS (dSer at 2; K(γE-x53) at 14; C-terminal NH2) [SEQ ID NO: 124] | 8.4 | 3 |
| HXQGTFTSDLSKQKDSRRAQDFIEWLKNGGPSSGAPPPS (dSer at 2; K(γE-x53) at 14; C-terminal NH[(CH2-CH2-O)4-CH2-CH2-COOH]) [SEQ ID NO: 104] | 1.1 | 6.5 |
| HXQGTFTSDLSKQKESRRAQDFIEWLKNTGPSSGAPPPS (dSer at 2; K(γE-x53) at 14; C-terminal NH2) [SEQ ID NO: 96] | 3.4 | 74.3 |
| HXQGTFTSDLSKQKDSRRAQDFIEWLKSGGPSSGAPPPS (dSer at 2; K(γE-x53) at 14; C-terminal NH2) [SEQ ID NO: 128] | 1.6 | 6.2 |
| HXQGTFTSDLSKQKDSRRAQDFIEWLKNGGPSSGAPPPS (dSer at 2; K(γE-x53) at 14; C-terminal NH[(CH2)12-OH]) [SEQ ID NO: 107] | 37.8 | 188 |
| HXQGTFTSDLSKQKESXAAQDFIEWLKAGGPSSGAPPPS (dSer at 2; K(γE-x70) at 14; Aib at 17; C-terminal NH2) [SEQ ID NO: 11] | 25.7 | 3.6 |
| HXQGTFTSDLSKQKDSRRAQDFIEWLKNTGPSSGAPPPS (dSer at 2; K(γE-x53) at 14; C-terminal NH2) [SEQ ID NO: 92] | 1 | 26 |
| HXQGTFTSDLSKQKDSRRAQDFIEWLKNGGPSSGAPPPS (dSer at 2; K(γE-x53) at 14; C-terminal NH[(CH2)17-CH3]) [SEQ ID NO: 109] | 28.6 | 430 |
| HXQGTFTSDLSKQKDSRRAQDFIEWLKNGGPSSGAPPPS (dSer at 2; K(γE-x53) at 14; C-terminal NH(tert.butyl)) [SEQ ID NO: 100] | 2 | 13.5 |
| HXQGTFTSDLSKQKDSRRAQDFIEWLKNGGPSSGAPPPS (dSer at 2; K(γE-x69) at 14; C-terminal NH2) [SEQ ID NO: 90] | 3.7 | 8.8 |
| HXQGTFTSDLSKQKDSRRAQDFIEWLKNGGPSSGAPPPS (dSer at 2; K(γE-x72) at 14; C-terminal NH2) [SEQ ID NO: 91] | 8.9 | 15.1 |
| H[Aib]QGTFTSDLSKQK([γGlu-x53])ES[Aib]AAQDFIEWLKAGGPSSGAPPPS-NH2 (reading uncertain) [SEQ ID NO: 13] | 281 | 3.1 |
| H[Aib]QGTFTSDLSKQK([γGlu-x53])ESRRAQDFIEWLKNGGPSSGAPPPS-NH2 (reading uncertain) [SEQ ID NO: 117] | 16.5 | 3.8 |
| HXQGTFTSDLSKQKESRRAQDFIEWLKRXGPSSGAPPPS (dSer at 2; K(γE-x53) at 14; dAla at 29; C-terminal NH2) [SEQ ID NO: 126] | 6.8 | 6.6 |
| HXQGTFTSDLSKQKDERRAKDFIEWLKNGGPSSGAPPPS (dSer at 2; K(γE-x53) at 14; C-terminal NH2) [SEQ ID NO: 87] | 1.3 | 3 |
| HXQGTFTSDLSKQKESRRAQDFIEWLKRGGPSSGAPPPS (dSer at 2; K(γE-x53) at 14; C-terminal NH2) [SEQ ID NO: 127] | 9.4 | 14.7 |
| HXQGTFTSDLSKQKESRRAQDFIEWLKSGGPSSGAPPPS (dSer at 2; K(γE-x53) at 14; C-terminal NH2) [SEQ ID NO: 129] | 4.1 | 14.8 |
| HXQGTFTSDLSKQKESRRAXDFIEWLKNGGPSSGAPPPS (dSer at 2; K(x53) at 14; Aib at 20; C-terminal NH2) [SEQ ID NO: 119] | 41.2 | 30.8 |
| HXQGTFTSDLSKQKESRRAQDFIEWLKNGGPSSGAPPPK (dSer at 2; K(x53) at 14; C-terminal NH2) [SEQ ID NO: 114] | 31.1 | 62.3 |
| HXQGTFTSDLSKQKESRRAQDFIEWLKNGGPSSGAPPPK (dSer at 2; K(γE-x53) at 14; C-terminal NH2) [SEQ ID NO: 113] | 5.4 | 11.4 |
| HXQGTFTSDLSKQKEKRRAQDFIEWLKNGGPSSGAPPPS (dSer at 2; K(γE-x53) at 14; C-terminal NH2) [SEQ ID NO: 88] | 1.6 | 2.4 |
